Source: PMC11574245, “Transplacental SARS-CoV-2 protein ORF8 binds to complement C1q to trigger fetal inflammation” (The EMBO Journal, 2024)

Each binder was assayed against T1, C1q Human protein (human, UniProt P02745 23-245; P02746 28-253; P02747 29-245) (assay: ELISA; plates coated with each of 28 ORF8 peptides (1 mM in carbonate buffer 50 mM pH 9.6, overnight 2-8 °C); human C1q (5, 10, 25 or 100 nM in 3% BSA/TBST) 2 h at room temperature; detected with sheep polyclonal anti-C1Q-HRP). Settings: both partners purified.
T1 construct: human complement C1q subcomponent subunit A (A chain of the C1q complex); human complement C1q subcomponent subunit B (B chain of the C1q complex); human complement C1q subcomponent subunit C (C chain of the C1q complex); The methods call it recombinant human C1q; also called human C1q; purified human C1q protein; source: bought: Complement Technology (Cat. A099); copies: 6 + 6 + 6
T1 sequence (P02745 23-245, chain 1 of 3): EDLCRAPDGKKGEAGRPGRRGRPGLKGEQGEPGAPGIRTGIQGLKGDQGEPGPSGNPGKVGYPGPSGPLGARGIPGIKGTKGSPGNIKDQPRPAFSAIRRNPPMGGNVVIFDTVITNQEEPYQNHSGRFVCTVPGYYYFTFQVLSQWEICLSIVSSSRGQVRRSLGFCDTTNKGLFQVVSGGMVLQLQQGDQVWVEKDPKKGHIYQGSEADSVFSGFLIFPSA
T1 sequence (P02746 28-253, chain 2 of 3): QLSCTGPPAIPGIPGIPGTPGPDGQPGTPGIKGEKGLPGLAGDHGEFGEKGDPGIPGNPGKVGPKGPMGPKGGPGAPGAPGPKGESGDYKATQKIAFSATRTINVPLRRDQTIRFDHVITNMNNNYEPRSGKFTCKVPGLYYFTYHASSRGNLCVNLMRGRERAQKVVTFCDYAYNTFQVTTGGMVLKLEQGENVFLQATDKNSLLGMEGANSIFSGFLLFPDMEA
T1 sequence (P02747 29-245, chain 3 of 3): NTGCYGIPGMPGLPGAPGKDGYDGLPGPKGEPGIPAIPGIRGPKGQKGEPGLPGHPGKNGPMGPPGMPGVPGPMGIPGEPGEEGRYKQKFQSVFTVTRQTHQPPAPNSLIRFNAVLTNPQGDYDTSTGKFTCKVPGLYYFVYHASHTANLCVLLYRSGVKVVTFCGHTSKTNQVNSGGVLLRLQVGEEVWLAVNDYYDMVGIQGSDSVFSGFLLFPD

| Binder | binding result |
| --- | --- |
| CPIHFYSKWYIRVGA [SARS-CoV-2 ORF8 peptide #10 (C37-A51)] | binds |
| SLVVRCSFYEDFLEY [SARS-CoV-2 ORF8 peptide #25 (S97-Y111)] | binds |
| YIDIGNYTVSCLPFT [SARS-CoV-2 ORF8 peptide #19 (Y73-T87)] | binds |
